The values that follow come from US20180094248A1 (ARIZONA BOARD OF REGENTS ON BEHALF OF ARIZONA STATE …, published 2018).

B1: Receptor Interacting Protein Kinase-3 (RIPK3) (enzyme, human, UniProt Q9Y572 1-518, looked up)
chain: MSCVKLWPSGAPAPLVSIEELENQELVGKGGFGTVFRAQHRKWGYDVAVKIVNSKAISREVKAMASLDNEFVLRLEGVIEKVNWDQDPKPALVTKFMENGSLSGLLQSQCPRPWPLLCRLLKEVVLGMFYLHDQNPVLLHRDLKPSNVLLDPELHVKLADFGLSTFQGGSQSGTGSGEPGGTLGYLAPELFVNVNRKASTASDVYSFGILMWAVLAGREVELPTEPSLVYEAVCNRQNRPSLAELPQAGPETPGLEGLKELMQLCWSSEPKDRPSFQECLPKTDEVFQMVENNMNAAVSTVKDFLSQLRSSNRRFSIPESGQGGTEMDGFRRTIENQHSRNDVMVSEWLNKLNLEEPPSSVPKKCPSLTKRSRAQEEQVPQAWTAGTSSDSMAQPPQTPETSTFRNQMPSPTSTGTPSPGPRGNQGAERQGMNWSCRTPEPNPVTGRPLVNIYNCSGVQVGDNNYLTMQQTTALPTWGLAPSGKGRGLQHPPPVGSQEGPKDPEAWSRPQGWYNHSGK
notes: Endogenous protein in human brain sections

Test [1] concerns the target T1, Receptor Interacting Protein Kinase-1 (RIPK1) (human, UniProt Q13546 1-671).
T1 construct: Endogenous protein in human AD and CTL brain extracts (TBS/Triton-X100) and in human cell lysates; also called RIP1
T1 sequence (looked up): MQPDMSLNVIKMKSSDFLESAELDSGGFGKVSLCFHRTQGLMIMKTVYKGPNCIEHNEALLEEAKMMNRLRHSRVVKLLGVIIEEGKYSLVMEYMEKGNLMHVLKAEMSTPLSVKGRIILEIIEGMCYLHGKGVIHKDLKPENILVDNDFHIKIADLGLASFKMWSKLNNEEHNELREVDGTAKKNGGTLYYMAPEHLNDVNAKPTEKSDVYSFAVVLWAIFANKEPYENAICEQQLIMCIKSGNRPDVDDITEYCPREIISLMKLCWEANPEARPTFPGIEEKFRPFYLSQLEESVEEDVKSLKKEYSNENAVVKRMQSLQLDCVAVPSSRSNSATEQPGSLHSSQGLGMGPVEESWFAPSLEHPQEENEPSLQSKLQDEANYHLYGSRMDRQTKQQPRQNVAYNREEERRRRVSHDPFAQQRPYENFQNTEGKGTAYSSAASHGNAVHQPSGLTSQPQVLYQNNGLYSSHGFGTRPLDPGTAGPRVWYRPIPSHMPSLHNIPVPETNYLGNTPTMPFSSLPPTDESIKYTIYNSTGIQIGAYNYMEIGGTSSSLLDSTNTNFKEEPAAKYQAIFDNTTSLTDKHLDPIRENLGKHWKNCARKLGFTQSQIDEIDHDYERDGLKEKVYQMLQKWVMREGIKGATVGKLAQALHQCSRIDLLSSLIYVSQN
Kind of test: confocal co-localization in co-labeled human brain sections. The procedure: (§1) The tissue was then washed in water and let dry overnight. The next day the slides were cleared in xylene and coverslipped with DPX mounting solution (Sigma-Aldrich). The immunohistochemistry on the brain sections from APP/PS1 was conducted following a similar protocol as we previously detailed 49. In this case, sections were stained with an anti-A(342 specific antibody (1:200; Millipore, catalog number AB5078P) and with a neuronal marker NeuN (1:200, Millipore, catalog number MAB377), Iba1 (Wako), GFAP (Cell Signaling) and GFP (1:200, Thermo Fisher Scientific, catalog number A-11122).
(§2) Confocal microscopy and image analysis: All images were acquired at a resolution size of x=1024, y=1024, and z=1, using a 63× oil immersion objective and zoom of 1.5 using the Leica DM 2500 confocal microscope. Image fields within the x-y plane of the tissue section were randomly selected. For each image acquired, channels were split to allow separate pixel quantification in both the 561 nm and 635 nm channels. To quantify total protein in each image field, channels were split and the integrated signal density of each channel was quantified using ImageJ software. Human brain tissue sections immunostained for RIPK1, RIPK3, MLKL, and pMLKL were analyzed to measure absolute protein levels, as well as co-localization between RIPK1 and RIPK3, RIPK3 and MLKL, and RIPK1 and MLKL. […]

Test [2] deals with B1. The description is as above. The procedure: as §1, §2

With B1, the binding result in test [1] is reported as “binds”.

B2: Mixed Lineage Kinase Domain-Like (MLKL) (other)
chain: MENLKHIITLGQVIHKRCEEMKYCKKQCRRLGHRVLGLIKPLEMLQDQGKRSVPSEKLTTAMNRFKAALEEANGEIEKFSNRSNICRFLTASQDKILFKDVNRKLSDVWKELSLLLQVEQRMPVSPISQGASWAQEDQQDADEDRRAFQMLRRDNEKIEASLRRLEINMKEIKETLRQYLPPKCMQEIPQEQIKEIKKEQLSGSPWILLRENEVSTLYKGEYHRAPVAIKVFKKLQAGSIAIVRQTFNKEIKTMKKFESPNILRIFGICIDETVTPPQFSIVMEYCELGTLRELLDREKDLTLGKRMVLVLGAARGLYRLHHSEAPELHGKIRSSNFLVTQGYQVKLAGFELRKTQTSMSLGTTREKTDRVKSTAYLSPQELEDVFYQYDVKSEIYSFGIVLWEIATGDIPFQGCNSEKIRKLVAVKRQQEPLGEDCPSELREIIDECRAHDPSVRPSVDEILKKLSTFSK
notes: Endogenous protein in human brain extracts and HAP1 cells
Consider B2, for which the binding result in test [2] is “binds”.
